What all share (assay): cross-linking
Test [1] deals with CheA A37C (single-cysteine mutant of cysteine-less CheA) (Salmonella typhimurium) (UniProt P09384).
Test [2] concerns the target CheA A114C (single-cysteine mutant of cysteine-less CheA) (Salmonella typhimurium) (UniProt P09384).
For test [3], the target named is CheA E109C (single-cysteine mutant of cysteine-less CheA) (Salmonella typhimurium) (UniProt P09384).
Test [4] concerns the target CheA E311C (single-cysteine mutant of cysteine-less CheA) (Salmonella typhimurium) (UniProt P09384).
The target of test [5] is CheA G636C (single-cysteine mutant of cysteine-less CheA) (Salmonella typhimurium) (UniProt P09384).
Test [6] addresses CheA L627C (single-cysteine mutant of cysteine-less CheA) (Salmonella typhimurium) (UniProt P09384).
The target in test [7] is CheA M469C (single-cysteine mutant of cysteine-less CheA) (Salmonella typhimurium) (UniProt P09384).
Test [8] deals with CheA Q10C (single-cysteine mutant of cysteine-less CheA) (Salmonella typhimurium) (UniProt P09384).
Test [9] concerns the target CheA Q10C/D359C (dicysteine mutant of cysteine-less CheA) (Salmonella typhimurium) (UniProt P09384).
The target of test [10] is CheA Q10C/E311C (dicysteine mutant of cysteine-less CheA) (Salmonella typhimurium) (UniProt P09384).
Test [11] deals with CheA Q10C/E369C (dicysteine mutant of cysteine-less CheA) (Salmonella typhimurium) (UniProt P09384).
Test [12] deals with CheA Q10C/E425C (dicysteine mutant of cysteine-less CheA) (Salmonella typhimurium) (UniProt P09384).
Test [13] deals with CheA Q10C/E460C (dicysteine mutant of cysteine-less CheA) (Salmonella typhimurium) (UniProt P09384).
Test [14] has as its target CheA Q10C/M469C (dicysteine mutant of cysteine-less CheA) (Salmonella typhimurium) (UniProt P09384).
Test [15] has as its target CheA Q10C/Q454C (dicysteine mutant of cysteine-less CheA) (Salmonella typhimurium) (UniProt P09384).
Test [16] deals with CheA Q10C/S351C (dicysteine mutant of cysteine-less CheA) (Salmonella typhimurium) (UniProt P09384).
Test [17] deals with CheA Q10C/S514C (dicysteine mutant of cysteine-less CheA) (Salmonella typhimurium) (UniProt P09384).
The target of test [18] is CheA Q125C (single-cysteine mutant of cysteine-less CheA) (Salmonella typhimurium) (UniProt P09384).
Test [19] concerns the target CheA Q596C (single-cysteine mutant of cysteine-less CheA) (Salmonella typhimurium) (UniProt P09384).
The target of test [20] is CheA R171C (single-cysteine mutant of cysteine-less CheA) (Salmonella typhimurium) (UniProt P09384).
Test [21] addresses CheA R607C (single-cysteine mutant of cysteine-less CheA) (Salmonella typhimurium) (UniProt P09384).
Test [22] has as its target CheA S514C (single-cysteine mutant of cysteine-less CheA) (Salmonella typhimurium) (UniProt P09384).

“CheA A37C (single-cysteine mutant of cysteine-less CheA) (from UniProt P09384 1-671) (enzyme)” had a fraction (%) intradimer in test [1] of 46%.

With “CheA A114C (single-cysteine mutant of cysteine-less CheA) (from UniProt P09384 1-671) (enzyme)”, the fraction (%) intradimer in test [2] came to 84%.

“CheA E109C (single-cysteine mutant of cysteine-less CheA) (from UniProt P09384 1-671) (enzyme)” displayed a fraction (%) intradimer in test [3] of 82%.

On to “CheA E311C (single-cysteine mutant of cysteine-less CheA) (from UniProt P09384 1-671) (enzyme)”, for which the fraction (%) intradimer in [4] is 93%.

As to “CheA G636C (single-cysteine mutant of cysteine-less CheA) (from UniProt P09384 1-671) (enzyme)”, the fraction (%) intradimer in test [5] came out at 83%.

For the substance “CheA L627C (single-cysteine mutant of cysteine-less CheA) (from UniProt P09384 1-671) (enzyme)”, the fraction (%) intradimer in [6] was found to be 100%.

In test [7], “CheA M469C (single-cysteine mutant of cysteine-less CheA) (from UniProt P09384 1-671) (enzyme)” came in with a fraction (%) intradimer of 72%.

In test [8], “CheA Q10C (single-cysteine mutant of cysteine-less CheA) (from UniProt P09384 1-671) (enzyme)” came in with a fraction (%) intradimer of 100%.

“CheA Q10C/D359C (dicysteine mutant of cysteine-less CheA) (from UniProt P09384 1-671) (enzyme)” came in with a fraction (%) intradimer in test [9] of 86%.

In test [10], “CheA Q10C/E311C (dicysteine mutant of cysteine-less CheA) (from UniProt P09384 1-671) (enzyme)” displayed a fraction (%) intradimer of 87%.

In test [11], “CheA Q10C/E369C (dicysteine mutant of cysteine-less CheA) (from UniProt P09384 1-671) (enzyme)” returned a fraction (%) intradimer of 81%.

In test [12], “CheA Q10C/E425C (dicysteine mutant of cysteine-less CheA) (from UniProt P09384 1-671) (enzyme)” had a fraction (%) intradimer of 100%.

Substance “CheA Q10C/E460C (dicysteine mutant of cysteine-less CheA) (from UniProt P09384 1-671) (enzyme)” registered a fraction (%) intradimer in [13] of 91%.

The substance “CheA Q10C/M469C (dicysteine mutant of cysteine-less CheA) (from UniProt P09384 1-671) (enzyme)” yielded a fraction (%) intradimer in test [14] of 100%.

In turn, “CheA Q10C/Q454C (dicysteine mutant of cysteine-less CheA) (from UniProt P09384 1-671) (enzyme)” returned a fraction (%) intradimer in test [15] of 100%.

“CheA Q10C/S351C (dicysteine mutant of cysteine-less CheA) (from UniProt P09384 1-671) (enzyme)” returned a fraction (%) intradimer in [16] of 100%.

“CheA Q10C/S514C (dicysteine mutant of cysteine-less CheA) (from UniProt P09384 1-671) (enzyme)” had a fraction (%) intradimer in test [17] of 49%.

As to “CheA Q125C (single-cysteine mutant of cysteine-less CheA) (from UniProt P09384 1-671) (enzyme)”, in [18], the fraction (%) intradimer came out at 81%.

In turn, “CheA Q596C (single-cysteine mutant of cysteine-less CheA) (from UniProt P09384 1-671) (enzyme)” had a fraction (%) intradimer in [19] of 100%.

For “CheA R171C (single-cysteine mutant of cysteine-less CheA) (from UniProt P09384 1-671) (enzyme)”, the fraction (%) intradimer in [20] is 100%.

For the substance “CheA R607C (single-cysteine mutant of cysteine-less CheA) (from UniProt P09384 1-671) (enzyme)”, the fraction (%) intradimer in [21] came out at 100%.

On to “CheA S514C (single-cysteine mutant of cysteine-less CheA) (from UniProt P09384 1-671) (enzyme)”, for which the fraction (%) intradimer in test [22] turned out to be 50%.

Values taken from publication PMC2902799.
